From article PMC12124358 (Science Advances, 2025)

Target: Clr4 lysine methyltransferase (KMT) domain (residues 192 to 490) (S. pombe, UniProt O60016 192-490)
Test: ITC

Clr4 lysine methyltransferase (KMT) domain (residues 192 to 490), sequence (O60016 192-490): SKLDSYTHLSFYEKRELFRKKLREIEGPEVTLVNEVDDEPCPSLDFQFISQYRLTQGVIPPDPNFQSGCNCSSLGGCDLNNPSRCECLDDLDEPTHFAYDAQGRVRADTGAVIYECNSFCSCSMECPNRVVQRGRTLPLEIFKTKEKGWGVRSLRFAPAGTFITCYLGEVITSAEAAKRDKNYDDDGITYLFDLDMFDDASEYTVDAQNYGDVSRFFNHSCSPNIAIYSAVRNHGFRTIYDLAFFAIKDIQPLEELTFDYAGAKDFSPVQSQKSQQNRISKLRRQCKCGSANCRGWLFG

B1: H3(1–20)_([change])-Ub_([change]), disulfide bond-linked ubiquitinated H3 tail (other)
chain 1: ARTKQTARKSTGGCAPRKQL
chain 2: […]
**Q.** For B1, which Kd is on record?
**A.** 133 ± 13 µM
